{
  "source": "patent US12409260",
  "target": "SARS-CoV-2 (2019-nCoV) Spike S1-His Recombinant Protein (Sino Biological Catalog Number 40591-V08H) (SARS-CoV-2) (UniProt P0DTC2)",
  "data": [
    {"substance": "Galanthus nivalis agglutinin (GNA) (from UniProt P30617 24-128)", "values": [
      {"measurement": "percent of S1 depleted from solution at 15 minutes", "value": "> 90", "unit": "%"}
    ]}
  ]
}
